Source: publication PMC7937191 (Biochemical and biophysical research communications, 2020)

target: CXCR4-RLuc (chemokine (C-X-C motif) receptor 4 with Renilla reniformis luciferase at the C-terminus) (UniProt P61073 1-352); assay: FRET or BRET
Sequence (P61073 whole entry): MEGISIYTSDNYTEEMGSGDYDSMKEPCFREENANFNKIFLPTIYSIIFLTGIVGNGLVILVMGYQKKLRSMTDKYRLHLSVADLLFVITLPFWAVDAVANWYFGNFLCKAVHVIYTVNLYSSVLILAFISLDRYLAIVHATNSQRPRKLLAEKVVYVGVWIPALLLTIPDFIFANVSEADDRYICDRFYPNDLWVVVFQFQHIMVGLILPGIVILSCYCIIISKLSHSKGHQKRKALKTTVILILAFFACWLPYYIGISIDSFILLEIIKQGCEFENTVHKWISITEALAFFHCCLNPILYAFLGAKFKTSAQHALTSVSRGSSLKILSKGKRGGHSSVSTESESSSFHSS

BRET50 (EYFP/Lum)	Binder
0.055 EYFP/Lum	α1a-AR-EYFP (α1a-adrenergic receptor with enhanced yellow fluorescent protein at the C-terminus) (receptor, UniProt P35348 1-466, looked up) MVFLSGNASDSSNCTQPPAPVNISKAILLGVILGGLILFGVLGNILVILSVACHRHLHSVTHYYIVNLAVADLLLTSTVLPFSAIFEVLGYWAFGRVFCNIWAAVDVLCCTASIMGLCIISIDRYIGVSYPLRYPTIVTQRRGLMALLCVWALSLVISIGPLFGWRQPAPEDETICQINEEPGYVLFSALGSFYLPLAIILVMYCRVYVVAKRESRGLKSGLKTDKSDSEQVTLRIHRKNAPAGGSGMASAKTKTHFSVRLLKFSREKKAAKTLGIVVGCFVLCWLPFFLVMPIGSFFPDFKPSETVFKIVFWLGYLNSCINPIIYPCSSQEFKKAFQNVLRIQCLCRKQSSKHALGYTLHPPSQAVEGQHKDMVRIPVGSRETFYRISKTDGVCEWKFFSSMPRGSARITVSKDQSSCTTARVRSKSFLQVCCCVGPSTPSLDKNHQVPTIKVHTISLSENGEEV
0.051 EYFP/Lum	α1d-AR-EYFP (α1d-adrenergic receptor with enhanced yellow fluorescent protein at the C-terminus) (receptor, UniProt P25100 1-572, looked up) MTFRDLLSVSFEGPRPDSSAGGSSAGGGGGSAGGAAPSEGPAVGGVPGGAGGGGGVVGAGSGEDNRSSAGEPGSAGAGGDVNGTAAVGGLVVSAQGVGVGVFLAAFILMAVAGNLLVILSVACNRHLQTVTNYFIVNLAVADLLLSATVLPFSATMEVLGFWAFGRAFCDVWAAVDVLCCTASILSLCTISVDRYVGVRHSLKYPAIMTERKAAAILALLWVVALVVSVGPLLGWKEPVPPDERFCGITEEAGYAVFSSVCSFYLPMAVIVVMYCRVYVVARSTTRSLEAGVKRERGKASEVVLRIHCRGAATGADGAHGMRSAKGHTFRSSLSVRLLKFSREKKAAKTLAIVVGVFVLCWFPFFFVLPLGSLFPQLKPSEGVFKVIFWLGYFNSCVNPLIYPCSSREFKRAFLRLLRCQCRRRRRRRPLWRVYGHHWRASTSGLRQDCAPSSGDAPPGAPLALTALPDPDPEPPGTPEMQAPVASRRKPPSAFREWRLLGPFRRPTTQLRAKVSSLSHKIRAGGAQRAEAACAQRSEVEAVSLGVPHEVAEGATCQAYELADYSNLRETDI
0.072 EYFP/Lum	α1b-AR-EYFP (α1b-adrenergic receptor with enhanced yellow fluorescent protein at the C-terminus) (receptor, UniProt P35368 1-520, looked up) MNPDLDTGHNTSAPAHWGELKNANFTGPNQTSSNSTLPQLDITRAISVGLVLGAFILFAIVGNILVILSVACNRHLRTPTNYFIVNLAMADLLLSFTVLPFSAALEVLGYWVLGRIFCDIWAAVDVLCCTASILSLCAISIDRYIGVRYSLQYPTLVTRRKAILALLSVWVLSTVISIGPLLGWKEPAPNDDKECGVTEEPFYALFSSLGSFYIPLAVILVMYCRVYIVAKRTTKNLEAGVMKEMSNSKELTLRIHSKNFHEDTLSSTKAKGHNPRSSIAVKLFKFSREKKAAKTLGIVVGMFILCWLPFFIALPLGSLFSTLKPPDAVFKVVFWLGYFNSCLNPIIYPCSSKEFKRAFVRILGCQCRGRGRRRRRRRRRLGGCAYTYRPWTRGGSLERSQSRKDSLDDSGSCLSGSQRTLPSASPSPGYLGRGAPPPVELCAFPEWKAPGALLSLPAPEPPGRRGRHDSGPLFTFKLLTEPESPGTDGGASNGGCEAAADVANGQPGFKSNMPLAPGQF
